Assay results taken from patent US6713280 (THOMAS JEFFERSON UNIVERSITY, dated 2004).
No end group written: not given here. *: point of attachment. Decanoyl = CCCCCCCCCC(=O)*

How the values were obtained:
[1] = biological target: T1, GST-Bcl-2 protein (UniProt P10415 1-205, limits assumed); experiment: fluorescence polarization competition; 30 nM Flu-SEQ ID NO:30, 0.5 µM GST-Bcl-2, conjugate at 0.005-0.32 µM, 30 minutes at 37° C.
T1 construct: not shown: GST tag

[2] = biological target: Bax (UniProt Q07812 1-171, limits assumed); experiment: fluorescence polarization, FIG. 2: C
Bax, sequence (Q07812 1-171 limits assumed): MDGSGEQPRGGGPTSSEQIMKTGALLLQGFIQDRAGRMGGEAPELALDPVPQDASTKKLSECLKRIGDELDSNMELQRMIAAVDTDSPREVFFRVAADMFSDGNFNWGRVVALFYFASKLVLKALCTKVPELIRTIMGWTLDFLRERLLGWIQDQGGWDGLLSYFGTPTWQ

[3] = biological target: CD4 (UniProt P01730 26-396, limits assumed); experiment: fluorescence polarization, FIG. 2: E
[4] = biological target: T2, SH3 domain of the Bcr-Abl oncoprotein (UniProt P00519 61-121); experiment: fluorescence polarization, FIG. 2: D
T2 construct: domain: SH3 domain; also called Bcr-Abl SH3
T2 sequence (P00519 61-121 limits assumed): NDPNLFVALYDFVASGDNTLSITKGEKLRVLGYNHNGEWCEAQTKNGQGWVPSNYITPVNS

T1 sequence (P10415 1-205 limits assumed): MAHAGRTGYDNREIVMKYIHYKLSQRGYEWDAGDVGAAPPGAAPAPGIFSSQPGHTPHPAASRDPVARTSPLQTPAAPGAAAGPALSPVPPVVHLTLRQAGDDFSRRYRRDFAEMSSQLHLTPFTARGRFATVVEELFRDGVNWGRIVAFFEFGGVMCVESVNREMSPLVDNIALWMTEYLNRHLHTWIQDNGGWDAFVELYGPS

Binder | EC50 [1] [nM] | binding result [2] | binding result [3] | binding result [4]
Decanoyl-KNLWAAQRYGRELRRMSDEFEGSFKGL (also called decyl-K1285) [decyl-SEQ ID NO:56 (CH3(CH2)8COHN-KNLWAAQRYGRELRRMSDEFEGSFKGL)] | 130 |  |  | 
GQVGRQLAIIGDDINR (also: fluorescein label, site of attachment not given here, Synthetic peptide labeled with fluorescein; tracer of the fluorescence polarization assay; also called fluoresceinated BakBH3 peptide; Flu-SQ30) [fluorescein-labeled peptide SEQ ID NO:30 (Flu-SEQ ID NO:30)] |  | no binding | no binding | no binding
